According to the supplement of paper PMC10567573:

B1: KLHL14 (parent)
chain: YVIGGRNETGYLSSVECYNLETNE
B2: KRT13 (parent)
chain: KTIEELRDKILTATIENNRVILEI

Variants of: B1
Test: protein stability index of a GFP-peptide fusion (GPS, HEK-293T) (PSI 1-6); higher = more stable
Conditions: c terminus: a fixed tail appended
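Note: lentivirally expressed fusions sorted by FACS into six bins by GFP to DsRed ratio, PSI derived from sequencing read proportions per bin multiplied by bin number.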

Going from YVIFGRNETGYLSSVECYNLETNE [G4F] to YVIYGRNETGYLSSVECYNLETNE [G4Y], the protein stability index rises from 1.31 to 2.42.

Compared with YVIWGRNETGYLSSVECYNLETNE [G4W], YVIDGRNETGYLSSVECYNLETNE [G4D] is lower in protein stability index: 2.32 for the first, 1.89 for the second.

Variants of: B2
Test: as above
Conditions: c terminus: a fixed tail appended

Going from KTIEELRDKILTATIENNRVIMEI [L22M] to KTIEELRDKILTATIENNRVIQEI [L22Q], the protein stability index rises from 2.2 to 2.88.

First: KTIEELRDKILTATIENNRVIGEI [L22G]
Second: KTIEELRDKILTATIENNRVIFEI [L22F]
The protein stability index of the first is lower: 1.8 for the first, 3.35 for the second.

Compared with KTIEELRDKILTATIENNRVIHEI [L22H], KTIEELRDKILTATIENNRVIDEI [L22D] is higher in protein stability index: 2.52 for the first, 2.84 for the second.

Going from KTIEELRDKIGTATIENNRVILEI [L11G] to KTIEELRDKIRTATIENNRVILEI [L11R], the protein stability index falls from 1.87 to 1.39.

Going from KTIEELRDKIHTATIENNRVILEI [L11H] to KTIEQLRDKILTATIENNRVILEI [E5Q], the protein stability index rises from 1.52 to 2.38.

Going from KTIAELRDKILTATIENNRVILEI [E4A] to KTIHELRDKILTATIENNRVILEI [E4H], the protein stability index rises from 1.85 to 3.82.

Compared with KTIEELRDKILTATIENNRVILMI [E23M], KTIEELRDKILTATIENNRVILPI [E23P] is lower in protein stability index: 3.54 for the first, 2.08 for the second.

First: KTIEELRDKILTATIENNRVILLI [E23L]
Second: KTIEELRDKILTATIENNRVILAI [E23A]
The protein stability index of the first is higher: 2.42 for the first, 1.85 for the second.

Going from KTIEELRDKILTATIENNRVILDI [E23D] to KTIEELRDKILTATIENNRVILRI [E23R], the protein stability index rises from 2.45 to 2.55.

Going from KTIEELRDKILTATIENNRVILTI [E23T] to KTIEELRDKILTATIENNRVILQI [E23Q], the protein stability index falls from 2.79 to 2.47.

First: KTIEELRDVILTATIENNRVILEI [K9V]
Second: KTIEELRDLILTATIENNRVILEI [K9L]
The protein stability index of the first is higher: 2.86 for the first, 2.37 for the second.

First: KTIEELRDPILTATIENNRVILEI [K9P]
Second: KTIEELRDGILTATIENNRVILEI [K9G]
The protein stability index of the first is higher: 2.84 for the first, 2.21 for the second.

First: KTIEELRDKILTATIANNRVILEI [E16A]
Second: KTIEELRDKILTATILNNRVILEI [E16L]
The protein stability index of the first is lower: 3.13 for the first, 3.35 for the second.

Compared with KTIEELRDKILTATIDNNRVILEI [E16D], KTIEELRDKILTATIENNRVTLEI [I21T] is lower in protein stability index: 3.13 for the first, 1.47 for the second.

First: KTIEELRDKILTATIENNRVKLEI [I21K]
Second: KTIEELRDKILTATIENNRVQLEI [I21Q]
The protein stability index of the first is lower: 1.74 for the first, 1.94 for the second.

First: KTIEELRDKILTATIENNRVDLEI [I21D]
Second: RTIEELRDKILTATIENNRVILEI [K1R]
The protein stability index of the first is higher: 2.43 for the first, 1.6 for the second.

Going from ITIEELRDKILTATIENNRVILEI [K1I] to YTIEELRDKILTATIENNRVILEI [K1Y], the protein stability index falls from 2.74 to 2.36.

Compared with DTIEELRDKILTATIENNRVILEI [K1D], CTIEELRDKILTATIENNRVILEI [K1C] is lower in protein stability index: 2.31 for the first, 1.99 for the second.

Going from ATIEELRDKILTATIENNRVILEI [K1A] to KTIEELRDKILTATIENERVILEI [N18E], the protein stability index falls from 3.63 to 3.06.

First: KTIEELRDKILTATIENWRVILEI [N18W]
Second: KTIEELRDKILTATIENHRVILEI [N18H]
The protein stability index of the first is lower: 1.96 for the first, 2.65 for the second.

Going from KTIEELRDKILTATIENRRVILEI [N18R] to KTIEELRDKHLTATIENNRVILEI [I10H], the protein stability index falls from 3.44 to 2.12.

Compared with KTIEELRDKWLTATIENNRVILEI [I10W], KTIEELRDKDLTATIENNRVILEI [I10D] is lower in protein stability index: 3.93 for the first, 1.73 for the second.

Compared with KTIEELRDKILTATIENNPVILEI [R19P], KTIEELRDKILTATIENNIVILEI [R19I] is higher in protein stability index: 2.25 for the first, 3 for the second.

Going from KTIEELRDKILTATIENNSVILEI [R19S] to KTIEELRDKILTGTIENNRVILEI [A13G], the protein stability index rises from 2.23 to 3.86.

Compared with KTIEELRDKILTKTIENNRVILEI [A13K], KTIEELRDKILTCTIENNRVILEI [A13C] is higher in protein stability index: 1.67 for the first, 2.5 for the second.

Compared with KTIEELRDKILTTTIENNRVILEI [A13T], KTIEELRDKILTATIENNRVILEY [I24Y] is higher in protein stability index: 1.92 for the first, 2.16 for the second.

Going from KTIEELRDKILTATIENNRVILEN [I24N] to KTIEELRDKILTATIENNRVILEQ [I24Q], the protein stability index falls from 2.64 to 2.44.

First: KTIEELRDKILTATIENNRVILEW [I24W]
Second: KTIEELRFKILTATIENNRVILEI [D8F]
The protein stability index of the first is lower: 2.09 for the first, 2.81 for the second.

First: KTIEELTDKILTATIENNRVILEI [R7T]
Second: KTIEELRDKILTATIEDNRVILEI [N17D]
The protein stability index of the first is lower: 2.16 for the first, 2.84 for the second.

First: KTIEELRDKILTATIECNRVILEI [N17C]
Second: KTIEELRDKILTATIEQNRVILEI [N17Q]
The protein stability index of the first is higher: 3.65 for the first, 3.06 for the second.

Compared with KTIEELRDKILIATIENNRVILEI [T12I], KTIEELRDKILGATIENNRVILEI [T12G] is lower in protein stability index: 3.39 for the first, 1.59 for the second.

Compared with KTIEELRDKILNATIENNRVILEI [T12N], KTIEELRDKILQATIENNRVILEI [T12Q] is lower in protein stability index: 2.83 for the first, 2.65 for the second.

Going from KTIEEDRDKILTATIENNRVILEI [L6D] to KTIEEPRDKILTATIENNRVILEI [L6P], the protein stability index falls from 1.92 to 1.48.

Compared with KTIEENRDKILTATIENNRVILEI [L6N], KTIEEHRDKILTATIENNRVILEI [L6H] is higher in protein stability index: 1.31 for the first, 3.32 for the second.

Compared with KTIEEARDKILTATIENNRVILEI [L6A], KTIEELRDKILTATNENNRVILEI [I15N] is higher in protein stability index: 1.94 for the first, 2.98 for the second.

Going from KTIEELRDKILTATFENNRVILEI [I15F] to KTIEELRDKILTATIENNRQILEI [V20Q], the protein stability index rises from 1.08 to 2.05.

Compared with KTIEELRDKILTATIENNRGILEI [V20G], KTIEELRDKILTATIENNREILEI [V20E] is higher in protein stability index: 1.6 for the first, 2.27 for the second.

Compared with KTIEELRDKILTATIENNRKILEI [V20K], KTIEELRDKILTATIENNRFILEI [V20F] is lower in protein stability index: 2.1 for the first, 1.8 for the second.

Going from KCIEELRDKILTATIENNRVILEI [T2C] to KHIEELRDKILTATIENNRVILEI [T2H], the protein stability index falls from 2.92 to 1.86.

Going from KWIEELRDKILTATIENNRVILEI [T2W] to KAIEELRDKILTATIENNRVILEI [T2A], the protein stability index falls from 3.4 to 2.31.

Going from KTDEELRDKILTATIENNRVILEI [I3D] to KTQEELRDKILTATIENNRVILEI [I3Q], the protein stability index rises from 1.67 to 2.43.

Compared with KTAEELRDKILTATIENNRVILEI [I3A], KTREELRDKILTATIENNRVILEI [I3R] is higher in protein stability index: 1.24 for the first, 1.36 for the second.

Going from KTCEELRDKILTATIENNRVILEI [I3C] to KTKEELRDKILTATIENNRVILEI [I3K], the protein stability index falls from 3.18 to 2.09.

Compared with KTIEELRDKILTAHIENNRVILEI [T14H], KTIEELRDKILTAVIENNRVILEI [T14V] is lower in protein stability index: 2.53 for the first, 1.02 for the second.

Going from KTIEELRDKILTAGIENNRVILEI [T14G] to KTIEELRDKILTADIENNRVILEI [T14D], the protein stability index falls from 4.63 to 2.57.
